From patent US9908923 (MEDICAL COLLEGE OF WISCONSIN, dated 2018)
Non-standard residues stand in square brackets, D forms with d. sY = N[C@@H](Cc1ccc(OS(=O)(=O)O)cc1)C(=O)O

B1: FLAG-hCXCR4 Ile4Ala/Ile6Ala (receptor, human, UniProt P61073 1-352, looked up)
chain: MEGASAYTSDNYTEEMGSGDYDSMKEPCFREENANFNKIFLPTIYSIIFLTGIVGNGLVILVMGYQKKLRSMTDKYRLHLSVADLLFVITLPFWAVDAVANWYFGNFLCKAVHVIYTVNLYSSVLILAFISLDRYLAIVHATNSQRPRKLLAEKVVYVGVWIPALLLTIPDFIFANVSEADDRYICDRFYPNDLWVVVFQFQHIMVGLILPGIVILSCYCIIISKLSHSKGHQKRKALKTTVILILAFFACWLPYYIGISIDSFILLEIIKQGCEFENTVHKWISITEALAFFHCCLNPILYAFLGAKFKTSAQHALTSVSRGSSLKILSKGKRGGHSSVSTESESSSFHSS
notes: whole, on cells; also called CXCR4 (I4A/I6A); not shown: FLAG tag
B2: CXCR41-38 (first 38 amino acids of CXCR4 preceded by a GlyMet dipeptide tag) (peptide)
peptide: GMMEGISIYTSDNYTEEMGSGDYDSMKEPAFREENANFNK
notes: range 1-38; Unsulfated recombinant peptide; also called CXCR4 N-terminal domain; CXCR1-38
B3: 18SGDsYDSM24 (sTyr21 sulfopeptide) (peptide)
peptide: Ac-SGD[sY]DSM-NH2
SMILES: CSCC[C@H](NC(=O)[C@H](CO)NC(=O)[C@H](CC(=O)O)NC(=O)[C@H](Cc1ccc(OS(=O)(=O)O)cc1)NC(=O)[C@H](CC(=O)O)NC(=O)CNC(=O)[C@H](CO)NC(C)=O)C(N)=O
notes: Synthetic CXCR4 heptapeptide, residues 18-24; also called sulfated Tyr21 peptide
B4: 18SGDYDSM24 (Tyr21 peptide) (peptide)
peptide: Ac-SGDYDSM-NH2
notes: Synthetic CXCR4 heptapeptide, residues 18-24; also called unsulfated Tyr21 peptide
B5: 9SDNsYTEE15 (sTyr12 sulfopeptide) (peptide)
peptide: Ac-SDN[sY]TEE-NH2
SMILES: CC(=O)N[C@@H](CO)C(=O)N[C@@H](CC(=O)O)C(=O)N[C@@H](CC(N)=O)C(=O)N[C@@H](Cc1ccc(OS(=O)(=O)O)cc1)C(=O)N[C@H](C(=O)N[C@@H](CCC(=O)O)C(=O)N[C@@H](CCC(=O)O)C(N)=O)[C@@H](C)O
notes: Synthetic CXCR4 heptapeptide, residues 9-15
B6: 9SDNYTEE15 (Tyr12 peptide) (peptide)
peptide: Ac-SDNYTEE-NH2
notes: Synthetic CXCR4 heptapeptide, residues 9-15; also called unsulfated Tyr12 peptide
B7: 4ISIsYTSD10 (sTyr7 sulfopeptide) (peptide)
peptide: Ac-ISI[sY]TSD-NH2
SMILES: CC[C@H](C)[C@H](NC(C)=O)C(=O)N[C@@H](CO)C(=O)N[C@H](C(=O)N[C@@H](Cc1ccc(OS(=O)(=O)O)cc1)C(=O)N[C@H](C(=O)N[C@@H](CO)C(=O)N[C@@H](CC(=O)O)C(N)=O)[C@@H](C)O)[C@@H](C)CC
notes: Synthetic CXCR4 heptapeptide, residues 4-10
B8: 4ISIYTSD10 (unsulfated Tyr7 peptide) (peptide)
peptide: Ac-ISIYTSD-NH2
notes: Synthetic CXCR4 heptapeptide, residues 4-10; also called CXCR4 Ile4-Asp10 heptapeptide

Tests used:
[1] = molecular target: T1, CXCL12WT (wild type CXCL12) (Homo sapiens (Human), UniProt P48061 22-89); experiment: 125I-CXCL12 radioligand displacement on CXCR4 II/AA (I4A/I6A); displaced tracer 125I-CXCL12
T1 construct: Recombinant, expressed and purified as previously described; [U-15N]-labelled in the NMR titrations; In monomer-dimer equilibrium; also called stromal cell-derived factor-1; SDF-1
T1 sequence (P48061 22-89 limits assumed): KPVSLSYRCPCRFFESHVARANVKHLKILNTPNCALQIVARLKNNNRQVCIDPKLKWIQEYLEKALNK

[2] = molecular target: T2, CXCL122 (constitutively dimeric CXCL12 variant, L36C/A65C) (Homo sapiens (Human), UniProt P48061 22-89, disulfide-locked dimer through the engineered cysteines); experiment: ΔG = -RT ln Kd at 298 K from the NMR titration
T2 construct: it is described as a variant of CXCL12 containing L36C/A65C mutations; also called CXCL12 locked dimer; LD
T2 sequence (P48061 22-89 L57C/A86C limits assumed): as the sequence (P48061 22-89 limits assumed) above, with L36C, A65C counted along it
Method: (§1) Each peptide was acetylated and amidated to create uncharged N- and C-termini, respectively. […] For each titration, the chemical shift change of every residue was used to identify the binding site and calculate the interaction affinity.
(§2) Total peptide additions differed for individual peptide titrations but ranged from 0-160 equivalencies. Spectra were processed using in-house scripts and chemical shift tracking was performed using CARA software. Combined ^1H/^15N chemical shift perturbations were calculated as $((5\ \Delta\delta_H)^2+(\Delta\deltaNH)^2)^{0.5}$, where δ_H and $\deltaNH$ are the amide proton and nitrogen chemical shifts, respectively. Equilibrium dissociation constants (K_d) were determined by non-linear fitting of the combined ^1H/^15N_H chemical shift perturbations as a function of peptide concentration to a single-site quadratic equation. For a given interaction, residues with the largest chemical shift perturbations were fitted individually. The resulting K_d values and their respective fitting errors were then averaged to produce the reported affinity and standard deviation for that interaction.

[3] = molecular target: T3, CXCL121 (constitutively monomeric CXCL12 variant, L55C/I58C) (Felis catus (Cat) (Felis silvestris …, UniProt O62657 22-89, engineered disulfide between Cys55 and Cys58)); experiment: ΔG = -RT ln Kd at 298 K from the NMR titration
T3 construct: also called CXCL12 locked monomer; LM
T3 sequence (O62657 22-89 L76C/I79C limits assumed): as the sequence (P48061 22-89 limits assumed) above, with L55C, I58C counted along it
Method: as §1, §2

[4] = molecular target: T2, CXCL122 (constitutively dimeric CXCL12 …); experiment: NMR 1H-15N HSQC titration of peptide into 15N-labelled chemokine, chemical shift perturbations fitted to a quadratic binding equation, 298 K
Method: as §1, §2

[5] = molecular target: T3, CXCL121 (constitutively monomeric …); experiment: as above
Method: as §1, §2

[6] = molecular target: T1, CXCL12WT (wild type CXCL12); experiment: ΔG = -RT ln Kd at 298 K from the NMR titration
Method: as §1, §2

[7] = molecular target: T2, CXCL122 (constitutively dimeric CXCL12 …); experiment: NMR titrations
Method: as §1, §2

[8] = molecular target: T1, CXCL12WT (wild type CXCL12); experiment: NMR 1H-15N HSQC titration of peptide into 15N-labelled chemokine, chemical shift perturbations fitted to a quadratic binding equation, 298 K
Method: as §1, §2

[9] = molecular target: T2, CXCL122 (constitutively dimeric CXCL12 …); experiment: ΔG = -RT ln Kd at 298 K from the NMR titration; non-specific binding to sY21 position
Method: as §1, §2

[10] = molecular target: T3, CXCL121 (constitutively monomeric …); experiment: NMR titrations (Table 1)
Method: as §1, §2

[11] = molecular target: T1, CXCL12WT (wild type CXCL12); experiment: NMR titrations
Method: as §1, §2

Row | Binder | binding result [1] | ΔG [2] [kcal/mol] | ΔG [3] [kcal/mol] | Kd [4] [µM] | Kd [5] [µM] | ΔG [6] [kcal/mol] | fold stronger binding than the unsulfated variant [7] [fold] | fold stronger binding than to CXCL12WT or CXCL121 [7] [fold] | Kd [8] [µM] | ΔG [9] [kcal/mol] | fold stronger binding than the sTyr7 sulfopeptide [10] [fold] | fold higher affinity than the sTyr7 sulfopeptide [11] [fold]
1 | B1 | binds |  |  |  |  |  |  |  |  |  |  | 
2 | B2 |  | -8.24 | -7.43 | 0.9 | 3.5 |  |  |  |  |  |  | 
3 | B3 |  | -5.01 | -3.81 | 211 | 1600 | -3.74 | 4 | 20 | 1800 |  |  | 
4 | B4 |  | -4.2 | -3.85 | 831 | 1500 | -3.5 |  |  | 2700 |  |  | 
5 | B5 |  |  | -3.74 |  | 1800 | -4.09 |  |  |  | -4.87 |  | 
6 | B6 |  | -4.74 | -3.5 |  | 2700 | -3.65 |  |  |  |  |  | 
7 | B7 |  |  | -3.02 |  | 6100 | -3.22 |  |  | 4300 | -4.65 |  | 
8 | B8 |  |  | -4.03 |  | 1100 | -3.71 |  |  | 1900 | -4.6 | ~5 | 2
